Key:
[1] = target: His-tagged C-propeptide of the human procollagen α2(I) chain (C1A2His) (human); test: co-purification (Co2+ affinity by the His-tag of the α2 chain, gel filtration) with SDS-PAGE and MALDI-TOF mass spectrometry; α1 and α2 C-propeptides co-expressed in HEK 293T (plasmids 2:1); hetero-CPI separated from untagged homo-CPI by the His-tag of the α2 chain; with or without removal of the tag by TEV protease; Superdex S200
[2] = target: His-tagged C-propeptide of the human procollagen α1(I) chain (C1A1His), chain of homo-CPI (human); test: SDS-PAGE (non-reducing and reducing) + MALDI-TOF mass spectrometry; purified homo-CPI; ~85 kDa non-reducing, 30 kDa reducing; disulfide-bonded trimer

| Substance | stoichiometry N (α1 chains per α2 chain) [1] | stoichiometry N [2] |
| --- | --- | --- |
| Non-tagged C-propeptide of the human procollagen α1(I) chain (C1A1) (domain or fragment) | 2 |  |
| His-tagged C-propeptide of the human procollagen α1(I) chain (C1A1His), chain of homo-CPI (domain or fragment) |  | 3 |
